From patent US20180022794A1

Target: endogenous active RhoA (RhoA-GTP) of HeLa S3 cells (UniProt P61586)
Experiment: cell-based or functional assay

Sequence of endogenous active RhoA (RhoA-GTP) of HeLa S3 cells (P61586 1-190 limits assumed): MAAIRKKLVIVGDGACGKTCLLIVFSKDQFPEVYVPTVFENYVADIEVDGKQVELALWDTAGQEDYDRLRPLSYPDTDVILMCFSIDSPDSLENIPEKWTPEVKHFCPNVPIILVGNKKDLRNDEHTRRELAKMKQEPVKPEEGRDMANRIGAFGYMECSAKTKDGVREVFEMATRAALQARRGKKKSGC

- RhoA-GTP level after 15 min of EGF treatment (GST-RBD pull down): 50%
B1: F-H12 (VHH, part only; not given: Fbox domain and myc tag, not shown: small tags and cut ends)
chain, part: VQLQASGGGFVQPGGSLRLSCAASGDGSRIYAMGWFRQAPGKEREFVSAISWEQDWEHYYADSVKGRFTISRDNSKNTVYLQMNSLRAEDTATYYCAAFMTPHRNLTSMYWGQGTQVTVSS
